Data published in publication PMC6048692 (Chemical Science, 2018).

Legend:
[1] = target: the molecule itself; test: MoTag2 comet formation, MT plus end tracking
SEC = target: the molecule itself; test: SEC

Protein	stoichiometry N [1]	stoichiometry N (SEC)
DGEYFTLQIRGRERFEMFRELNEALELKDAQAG (domain or fragment) [p53 tetramerization domain (TD), p53 324-356, fused with MoTag2]	4	–
DsRed fused to MoTag2 (natural protein) MRSSKNVIKEFMRFKVRMEGTVNGHEFEIEGEGEGRPYEGHNTVKLKVTKGGPLPFAWDILSPQFQYGSKVYVKHPADIPDYKKLSFPEGFKWERVMNFEDGGVVTVTQDSSLQDGCFIYKVKFIGVNFPSDGPVMQKKTMGWEASTERLYPRDGVLKGEIHKALKLKDGGHYLVEFKSIYMAKKPVQLPGYYYVDSKLDITSHNEDYTIVEQYERTEGRHHLFL	–	4
